Experimental data from the nanobody polyreactivity screen of Harvey et al. (2022).

Experiment: yeast display, Sf9 membrane polyspecificity reagent, FACS + sequencing; frameworks hold sequencing errors
Outline: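 Galactose-induced (36–48 hours) yeast carrying a synthetic nanobody display library were exposed to 10% biotinylated, detergent-solubilized Sf9 membrane reagent at 4 °C for 1 hour. FACS followed streptavidin microbead enrichment, using low and high (top ~1%) gates for expression (anti-HA) and reagent binding (streptavidin). Colony PCR, MiSeq 2 × 250 sequencing and CDR-length filtering followed. Labels for polyreactivity reflect the gate of origin.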

Sequence | polyreactivity (PSR sort gate)
QVQLLESGGGLVQAGGSLRLSCAASGFTLAFNAMGWYRQAPGKERELVASITSSSGSTYYADSVKGRFTISRDNAKNTVYLQLNSLKPEDTAVYYCARDLAIPQVLSQPIFGYWGQGTQVTVSS | low polyreactivity
QVQLVESGGGLVQAGGSLRLSCAASGFTFAPNAMGWYRQAPGKEREFVAVITYRSTSTFYADSVKGRFTISRDNAKNTVYLQMNSLKPEDTAVYYCNAKYLWYGRYNYWGQGTQVTVSS | high polyreactivity
QVQLVESGGGLVQAGGSLRLSCAASGSIFWTNAMGCYRQAPGKERELVASIHSSDASTDYADSVKGRFTISRDNEKNTVYLQMNSLKPEDTAVYYCNAAGAYPYYSEDYYWGQGSQVTVSS | low polyreactivity
QVQLVESGGGLVQAGGSLRLSCAASGRTFDRYAMGWYRQAPGKERELVAAITWSGGRTYYADSVKGRFTISRDNAKNTVYLQMNSLKPEDTAVYYCAADNSYRGYHSPYDYWGQGTQVTVSS | low polyreactivity
QVQLVESGGGLVQAGGSLRLSCAPSRFIFGHYAMGWYRQAPGKERELVAGINSSGGSTHYADSVKGRFTISRDNAKNTVYLQMNSLKPEDTAVYYCAADVYRFYAGSRYYYWGQGTQVTVSS | low polyreactivity
QVQLVESGGGLVQAGGSLRLSCAASGSIFTHNAMGWYRQAPGKERELVAAISTSGGRTYYADSVKGRFTISRDNAKNTVYLQMNSLKPEDTAVYYCAKLSTARYDYWGQGTQVTVSS | high polyreactivity
QVQLVESGGGLVQAGGSLRLSCAASGYTFTGYALGWYRQAPGKERELVAAITSIGGSTYYADSVKGRFTISRDNAKNTVYLQMNSLKPEDTAVYYCAAEGDYVYDMDYWGQGTQVTVSS | low polyreactivity
QVQLVESGGGLVQAGGSLRLSCAASGFIFYDYAMGWYRQAPGKERELVAAISRGGSSTYYADSVKGRFTISRDNAKNTVYLQMNSLKPEDTAVYYCAAYRWYEYDYWGQGTQVTVSS | high polyreactivity
QVQLVESGGGLVQAGGSLRLSCAASGSTFKLYAMGWYRPAPGKERELVAAITRSGTRTYYADSVKGRFTISRDNAKNTVYLQMNSLKPEDTAVYYCAADGYRISGYDYWGQGTQVTVSS | high polyreactivity
QVQLVESGGGLGQAGGSLGLSCAASGRTFYVNAMGWYRQAPGKERELVAAISWSGGSTYYADSVKGRFTISRDNAKNTVYLPINSLNPEDTAVYYCAAEDIEDYEYWGQGTQVTVSS | low polyreactivity
QVQLLESGGGLVQAGGSLRLSCAASGFNFGVYAMGWYRQAPGKERELVAAITRSGGSTYYADSVKGRYTISRDNAKNSVYLQMNSLNPEDTAVYYCAARARDHYGYWGQGTQVSVSS | high polyreactivity
QVQLVESGGGLVQAGGSLRLSCAASGRTFGVNAMGWYRQAPGKERELVAAISYSGASTFYADSVKGRFTISRDNAKNTVYLQMNSLKPEDTAVYYCDARGYYGGFYYWGQGTQVTVSS | high polyreactivity
QVQLVESGGGLVRAGGSLRISCAASGSIFDVNDMGWYRQAPGKERELVASISWNGGSPYYADSVKRRFTISRDNAKNTVYLQLNILNPEDTAVYYCNRSYRRPTSDLYDYWGQGTQVTVSS | low polyreactivity
QVQLQESGGGLVQAGGSLRLSCAASCTISQEDWMGWYRQAPGKEREFVAAIGLGSNTNYADSLKGRFTISRDNAKNTVYLQMNSLKPEDTAVYYCAVTVWQYSDHVYRGQGTQVTVSS | low polyreactivity
QVQLVESGGGLVQAGGSLRLSCAASGFTFWRYAMGWYRQAPGKERELVAAISRSGGGTYYADSVKGRFTISRDNAKNTVYLQMNSLKPEDTAVYYCAAALYKGSGELDYWGQGTQVTVSS | high polyreactivity
QVQLVESGGGLVQAGGSLRLSCAAYGSIFGYYAMGWYRQAPVKERALVAAITWSGDSTYYADSVKGRFTISRDNAKNTVYLQMKSLNPEDTAVYYCSARQFVHTRYFSFGYWGQGTQVTVSS | low polyreactivity
QVQLVESGGGLVQAGGSLRLSCPASGRIFYRYAMGWYRQEPGKERELVADITWRGGRTYYADSVKGRFTISRDNAKNTVYLQMNSLKPEDTAVYYCAATGGFSWSRDYWGQGTQVTVSS | low polyreactivity
QVQLVESGGGLVQAGGSLRLSCAASGSIFYSNAMGWYRQAPGKERELVAAISGSGGTTYYADSVKGRFTISRDNAKNTVYIQMNSLKPEDTAVYYCAAKPRVRVRLSDYWGQGTQVTVSS | high polyreactivity
QVQLVESGGGLVQAGGSLRLICAASGGIFATYAMGWYRQAPGKEMELVAAITKRGGSTYYADSVKGRFTISRDNAKNTVYLQMNSLTPEDTAVYYCAAKGYRWFRLGGYYFKFDYWGQGTQVTVSS | high polyreactivity
QVQLVESGGGLVQAGGSLSLTCAASGRIFSYYAMGWYRQAPGKERELVAGISRGTSTYYADSVKGRFTISRDNAKNTVYLQMNSLKPEDTAVYYCAADYFSYYSPYRYGYWGQGTQVTVSS | high polyreactivity
QVQLVESGGGLVQAGGSLRLICAASGRTFEDNAMGWYRQAPGKERELVAAISSDGSRNYADSVKGRFTISRDNAKNTVYLQMNSLKPEDTAVYYCNATVYWPYDWGTSDYWGQGTQVTVSS | low polyreactivity
QVQLVESGGGLVKAGGSLRLSCDASGLTFNANPMGWYRQEPGKESELVAAIDWIGVSTYYADSVKGRFTISRDNAKNTVYLQMNSLKPEDTAVYYCAAEYDYNFGGNDLWYYYWGQGTQVTVSS | high polyreactivity

Sequence | polyreactivity (PSR sort gate)
QVQLVESGGGLVQAGGSLRLSCAASGRIFSYNTVMGWYRQAPGKERELVAAITYSSASTYYADSVKGRFTISRDNAKNTVYLQMNSLKPEDTAVYYCAADAYTPGYRGDYWGQGTQVTVSS | low polyreactivity
QVQLVESGGGLVQAGGSLRLSCAASGFIIQGNAMGWYRQAPGKERELVAAISSCVSTYYADSVKGRFTISRDNAKNTVYLQMNSLKPEDTAVYYCNAGFPLSLWLGDYWGQGTHVTVSS | low polyreactivity
QVQLVESGGGLVQAGGSLRLSCAASGSIFGVNDMGWYRQAPGKERELVAGISSGGSTYYADSVKGRFTISRDNAKNTVYLQMNSLKPEDTAVYYCAKPYYDGRTHFDSWGQGTQVTVSS | low polyreactivity
QVQLVESGGGLVQAGGSLRLSCAASGFIFTEYAMGWYRQAPGKERELVAAISRSDDGTHYADSVKGRFTISRDYAKNTVYLPMNSLKPEDTAVYDCAAYRDYQYDYWGQGTQVTVSS | low polyreactivity
QVQLVESGGGLVQAGGSLRLSCAASGRIFVRYTMGWYRQAPGKERELVAAITKRGGSTYYADSVKGRFTISRDNAKNTVYLQMNSLKPEDTAVYYCATDGLGYNRPQDEYWGQGTQVTVSS | high polyreactivity
QVQLVESGGGLVQAGGSLRLSCDASGLTFSWYAMGWSRQAPGKERELVAAISRSGGSTYYADSVKGRFSISRDKAKNTVYLQMNSLKPEDTGVYYCAAETDIAPDYDYWGQGTQVTVSS | low polyreactivity
QVQLVESGGGLVQAGGSLRLSCAASGSTFYLYTMGWYRQAPGKERELVAAISRSGGSTRYADSVKGRFTISRDNAKNTVYLQMNSLKPEDTAVYYCAARSTVYPRPHERDYWGQGTQVTVSS | high polyreactivity
QVQLVESGGGLVQAGVSLRLSCAASGFIFYRYAMGWYRQAPRKERELVAAISWGGGSTTYYADSVKGRFTISRYNAKNTVYLQMNSLKPEDTAVYYCAKLRYPYLFWDDSEYWGQGTQVTVSS | low polyreactivity
QVQLVESGGGLVQAGGSLRLSCAASGRIFSYNAMGWYRPAPGKEREIVAGITKSGDDTFYADSVKGRFTISRDNAKNTVYLQMNSLKPQDTAVYYCAAASNPRYYTNRMVYWGQGTQVTVSS | low polyreactivity
QVQLVESGGGLVQAGGSLRLSCAASGRTFYDNTMGWYRQAPGKERELVAAINWSGTRTYYADSVKGRFTISRDNAKNTVYLQMNSLKPEDTAVYYCAADGPFRRTYGYWGQGTQVTVSS | low polyreactivity
QVQLVESGGGLVQAGGSLRLSCAASGRIFTAYAMVWYRPAPGKERELVAAISSGDSTYYADSVKGRFTISRDNAKNTVYLQKNSLKPEETAVYSCATGVYPDFEYDSWGQGTQVTVSS | low polyreactivity
QFHLVETGGGLVQAGGSLRLSCAASGSTFSDYAMGSYRQAPGKERELVAGITETGTTTYYADSVNGRFTISRDNAKNTDYLQINSLKPEDTAVYYCAAFLVTYYYGTGYYSYDYWGQGTQVTVSS | low polyreactivity
QVQLVESGGGLVQAGGSLRLSCAASGSTFVYYAMGWYRQAPGKERELGAAITASGGGTYYADSVKGRFTISRDNAKNTVYLQMNSLKPEDTAVYYCNRGYDYWGQGTQVTVSS | low polyreactivity
QVQLVESGGGLVQAGGSLRLSCAASGSTIDRYAMGWYIQAPGKEREFVAAISFSSASTYYADSVKGRFTISRDNAKNTVYLQMNSLKPEDTAVYYCNADFFDSGGSIEYDSWGQGTQVTVSS | low polyreactivity
QVQLVESGGGLVQAGGSLRLSCAASVIIFYPYAMGWSRQAPGKEMELVAAITARSANTYYADSVKGRFTISRDNAKNTVYLQMNSLKPEDTAVYYCAAAIYSYRTPYYYWGQGTQVTVSS | high polyreactivity
QVQLVESGGGLVQAGGSLRLSCAASGSTFPGNAMGWYRQAPGKERELVAAINWSGDSTYYADSVKGRFTISRDNAKNTVYLQMNSLKPEDTAVYYCAAYGDGYYYWGQGTQVTVSS | low polyreactivity
QVQLVESGGGLVQAGGSLRLSCAASGRTFWDYAMGWYIQAPGKEREFVAAINTSGGRTYYADSVKGRFTISRDNAKNTVYLQMNSLKPEDTAVYYCAARTRDRAYDSWGQGTQVTVSS | high polyreactivity
QVQLVESGVGLVQARGSLRLSSAASGITLPKYAMGWYRQEHGKERELVAAISRRGGITYYADSVKGRFTISRDNAKNTVYVQMNSLKPEDTAVYYCAADRTDTRGFDYWGQGTQVTVSS | high polyreactivity
QVQLVESGGGLVQAGGSLRLSCAASGRTFSYNAMGWYRQAPGKERELVAAINWRAGRTYYADSVKGRFTISRDNAKNTVYLQMNSLKPEDTAVYYCNARSGRGQAYGYWGQGTQVTVSS | high polyreactivity
QVQLVESGGGLVQAGGSLRLSCASSGSILGRYAMGWYRQAPGKERELVAAISGSGGSTYYADSVKGRFTISRDNAKNTVYLQMNSLKPEDTAVYYCAAERFIYYQIFEYWGQGTQVTVSS | high polyreactivity
QVQLVESGGGLVQAGGSLRLSCAASGYIFGSYVMGWYRQAPGKERELVAAITRIGASTYYEDSVKGRFTISRDTAKNTVYIQMNSLKPDDTAVYDCATDQGGYYENDYWGQGTQVTVSS | low polyreactivity
